Each block holds one molecule with its values, some of them ahead of it.
Tests used:
MAE3F2T cells = assay: Effect on FGF-2 dependent autocrine proliferation of MAE3F2T cells; format: cell-based, murine; conditions: 72 h in 0.4% FCS; PTX3 70 nM, suramin 50 μg/ml, anti FGF-2 antibodies; cell counting
Procedure: In this experiment we have investigated the effect of PTX3 on the proliferation of the murine aortic endothelial cell line MAE3F2T stably transfected with an expression vector coding for FGF-2 (Gualandris et al. 1996, Cell Growth Diff. 7:147-60). These cells can proliferate in response to a autocrine loop of stimulation induced by endogenous FGF-2 (Gualandris et al. 1996, Cell Growth Diff. 7:14760). MAE3F2T cells were seeded at 10,000/cm^2 in 48-well plates in Dulbecco medium (DMEM) added with 10% FCS. After 24 h at 37° C., adherent cells were washed twice with DMEM without FCS and incubated for 72 at 37° C. in DMEM containing 0.4% FCS in the presence or not of PTX3 (70 nM), anti FGF-2 specific antibodies or suramin (50 μg/ml). Suramin is known for its capacity to sequestrate extracellular FGF-2 and inhibits its biological activities (Rusnati et al., 1996, Mol. Biol. Cell. 7:369-381). At the end of incubation cells were trypsinized and counted in a Burker chamber.

FGF-2 [1] = target: T1, FGF-2 (Homo sapiens, UniProt P09038); assay: 125I-FGF-2 binding to plastic immobilised proteins; conditions: wells coated with 200 nM PTX3 or CRP or 2 μg/ml control proteins, 30 ng 125I-FGF-2, 2 h room temperature
T1 construct: made in house
T1 sequence (P09038 134-288): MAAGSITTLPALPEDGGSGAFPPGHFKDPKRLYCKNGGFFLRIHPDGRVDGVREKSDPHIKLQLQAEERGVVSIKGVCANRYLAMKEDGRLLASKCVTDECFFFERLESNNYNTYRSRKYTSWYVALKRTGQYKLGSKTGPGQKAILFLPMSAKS
Procedure: (§1) 96 wells plates were coated at 4° C. with 100 μl of NaHCO3 pH 9.6 containing PTX3 or C reactive protein (200 nM) or alternatively 2 μg/ml of the following proteins used as negative control: bovine serum albumin, fibronectin, gelatine or laminin. After incubation, wells were washed 3 times with PBS and blocked 2 h at room temperature with 200 μl of 1 mg/ml of BSA in PBS. At the end of incubation wells were washed 3 times with PBS and subsequently incubated with 30 ng of ^125I-FGF-2 for 2 h at room temperature. Wells were subsequently washed 3 times with PBS and bound ^125I-FGF-2 was recovered by washing each well twice with 200 μl of 2% SDS in water. Levels of ^125I-FGF-2 were measured in a gamma counter.

[2] = tested on: low affinity receptors (HSPGs) on GM7373 cells; assay: Effect of PTX3 on 125I-FGF-2 binding to low affinity receptors on endothelial cells; format: cell-based, bovine; conditions: 125I-FGF-2 10 ng/ml, 2 h at 4° C., increasing concentrations of PTX3
Procedure: (§2) Transformed foetal bovine aortic endothelial cells GM7373 were seeded at 80,000 cells/cm^2 in 24-well dishes in Eagle's minimal essential medium (Eagle's MEM) containing 10% FCS. After 24 h at 37° C. adherent cells were washed twice with Eagle's MEM without FCS and subsequently incubated for 2 h at 4° C. with ^125I-FGF-2 (10 ng/ml) in Eagle's MEM containing 0.15% gelatine and 20 mM HEPES pH 7.5 in the absence or in the presence of increasing concentrations of PTX3. At the end of incubation the amount of ^125I-FGF-2 bound to low (HSPGs) and high affinity receptors (FGFR) was evaluated as described by Moscatelli, 1987 J. Cell. Physiol. 131:123-30. Briefly cells were rinsed twice with 2 M NaCl in 20 mM HEPES buffer (pH 7.5) to remove ^125I-FGF-2 bound to low-affinity binding sites and twice with 2 M NaCl in 20 mM sodium acetate (pH 4.0) to remove ^125I-FGF-2 bound to high-affinity binding sites. Non-specific binding was measured in the presence of a 100-fold molar excess of unlabeled FGF-2 and subtracted from all the values.

FGF2MAE3F2T cells [3] = assay: Invasive behaviour of PTX3 over-expressing FGF2MAE3F2T clones on three-dimensional fibrin gels; format: cell-based, murine; conditions: PTX3 over-expressing clones (cDNA transfection) vs parental cells, after 2 days, image analysis
Description: (§3) Murine endothelial cells overexpressing FGF-2, named FGF2MAE3F2T (Gualandris et al. 1996, Cell Growth Diff. 7:147-60) were transfected with human PTX3 full length cDNA subcloned in the commercial expression vector pLXSH (Clontech).
(§4) In vitro studies on the transfected cell lines obtained were, performed to study the effect of PTX3 over-expression on FGF-2-dependent proliferation of FGF2MAE3F2T cells and their invasive behaviour on three-dimensional fibrin gels.
To evaluate the invasive behaviour of FGF2MAE3F2T clones over-expressing PTX3 on three-dimensional fibrin gels, cell aggregates were prepared on agarose-coated plates exactly as described (Gualandris et al. 1996, Cell Growth Diff. 7:147-60). These aggregates were seeded onto fibrin-coated 48 well-plates. Immediately after seeding, 250 µl of calcium-free medium containing fibrinogen (2.5 mg/ml) and thrombin (250 mU/ml) were added to each well and allowed to gel for 5 min at 37° C. Then, […] of culture medium were added on the top of the gel. In all the, experiments, the fibrinolytic inhibitor trasylol was added to the gel and to the culture medium at 200 KIU/ml to prevent the dissolution of the substrate. Formation of radially growing cell sprouts was evaluated after 2 days by computerized image analysis.

FGF-2 [4] = target: T1, FGF-2; assay: Capacity of PTX3 to bind FGF in solution (Superose 12 size exclusion chromatography, dot-blot); format: binding; conditions: FGF-2 pre-incubated with PTX3 10 min at 4° C., Superose 12 column
Procedure: This experiment has been performed in order to evaluate PTX3 binding to FGF-2. PTX3 has been produced as described by Bottazzi et al., 1997, J. Biol. Chem. 272:32817-32823. Human recombinant FGF-2 has been produced as described by Isacchi A. et al., Proc. Natl. Acad. Sci. U.S.A. (1991), 88:2628-32. When necessary, FGF-2 has been labelled with ^125I following the method described by Isacchi et al. (see below).
100 μl of PBS containing 1 μg of FGF-2, (or alternatively 1 μg of PTX3) were chromatographed on a size exclusion fast protein liquid chromatography Superose 12 column (Pharmacia): this column is able to separate proteins depending on their molecular weight. The column was eluted with PBS at a flow rate equal to 1 ml/minute and 1 ml fractions were collected and analyzed by dot, blot with specific antibodies for the two proteins. In order to evaluate PTX3 binding to FGF-2 the two proteins ([…] and 1 μg, respectively), were mixed in 100 μl PBS and incubated at 4° C. for 10 min. before loading onto the column. Fractions were collected and analysed by dot-blot with anti FGF-2 specific antibodies. […] In the same conditions PTX3 (450.000 D) is eluted with the void volume of the column (7 ml.) When FGF-2 pre-incubated with PTX3 for.

GM 7373 cells = assay: Effect of PTX3 on proliferation induced by other mitogens (FCS, DAG, TPA, EGF, VEGF); format: cell-based, bovine; conditions: 10% FCS, 5 μg/ml DAG, 10 ng/ml TPA, 30 ng/ml EGF or 30 ng/ml VEGF
Procedure: GM 7373 cells were seeded at 75,000 cells/cm^2 in 48-well plates in Eagle MEM containing 10% FCS. After 24 h at 37° C. adherent cells were washed twice with Eagle's MEM without FCS and subsequently incubated for 24 h at 37° C. in Eagle's MEM containing 0.4% FCS in the absence or in the presence of FGF-2 (10 ng/ml) and increasing concentrations of PTX3. At the end of incubation cells were trypsinized and counted. In a different set of experiments GM 7373 cells were treated as described above in the presence of different mitogenic stimuli: 10% FCS; 5 μg/ml dyacyl-glycerol (DAG); 10 ng/ml phorbol ester (TPA) 30 ng/ml epidermal growth factor (EGF) or 30 ng/ml vascular endothelial growth factor (VEGF). Results reported in FIG. 7 shown that PTX3 inhibits the mitogenic activity exerted on endothelial cells by FGF-2 in a dose-dependent manner with an ID50 equal to 30 nM. This value is similar to the Kd calculated for the interaction FGF-2-PTX3.

FGF2MAE3F2T cells [5] = assay: Proliferation of FGF2MAE3F2T clones over-expressing PTX3; format: cell-based, murine; conditions: clones transfected with human PTX3 full length cDNA (pLXSH) vs parental cells, 0.4% FCS
Procedure: as §3, §4
After 24 h at 37° C., adherent cells were washed twice with DMEM without FCS and incubated for different period of time at 37° C. in DMEM containing 0.4% FCS. At the end of incubations cells were trypsinized and counted in a Burker chamber.

FGF-2 [6] = target: T1, FGF-2; assay: Dissociation constant (Kd) of FGF-2/PTX3 interaction, Scatchard plot; format: binding; conditions: increasing doses of 125I-FGF-2 on plastic immobilised PTX3, Scatchard plot
Procedure: With this experiment the dissociation constant (Kd) FGF-2/PTX3 interaction has been determined. For this purpose increasing doses of ^125I-FGF-2 were incubated with plastic immobilised PTX3 and binding results were analysed by Scatchard plot. […] This affinity is similar to the affinity previously calculated for the interaction of PTX3 with its physiological ligand C1q.

[7] = tested on: high affinity receptors (FGFR) on GM7373 cells; assay: Effect of PTX3 on 125I-FGF-2 binding to high affinity receptors on endothelial cells; format: cell-based, bovine; conditions: 125I-FGF-2 10 ng/ml, 2 h at 4° C., increasing concentrations of PTX3
Procedure: as §2

[8] = tested on: neovascularization induced in vivo by FGF-2; assay: Chick embryo chorioallantoic membrane (CAM) assay, neovascularization induced by FGF-2; conditions: gelatin sponge, FGF-2 500 ng/sponge, PTX3 5 ug/sponge, scored after 4 days
Procedure: The antiangiogenic potential of PTX3 was evaluated in vivo in the chick embryo chorioallantoic membrane (CAM) assay. Briefly, a window was opened in the egg shell of 3 day-old fertilized chicken eggs. At day 8, gelatin sponges were implanted on the CAMs and adsorbed with 10 ul of PBS alone or containing FGF-2 (at 500 ng/sponge) in the absence or in the presence of PTX3 (5 ug/sponge) (5-6 embryos per group).

[9] = target: T2, interaction between 125I-FGF-2 and plastic immobilised PTX3 (Homo sapiens, UniProt P09038+P26022); assay: 125I-FGF-2 binding to plastic immobilised PTX3 in the presence of an excess of competitor; conditions: excess of competitor: FGF-2 or Cytocrome C 100 nM, soluble PTX3 300 nM
T2 construct: made in house
T2 sequence (P09038 134-288): as above
T2 sequence (P26022 18-381): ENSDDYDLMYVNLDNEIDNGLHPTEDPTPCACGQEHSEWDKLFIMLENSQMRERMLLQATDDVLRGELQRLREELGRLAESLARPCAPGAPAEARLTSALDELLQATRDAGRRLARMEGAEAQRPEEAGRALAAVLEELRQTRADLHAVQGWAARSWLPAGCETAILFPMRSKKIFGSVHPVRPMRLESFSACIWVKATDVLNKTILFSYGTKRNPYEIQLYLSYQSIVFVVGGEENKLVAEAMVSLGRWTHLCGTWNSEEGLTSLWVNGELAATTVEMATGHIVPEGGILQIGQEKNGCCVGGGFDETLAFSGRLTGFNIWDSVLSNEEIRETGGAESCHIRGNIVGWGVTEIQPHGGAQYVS
Procedure: as §1
In a second set of experiments the binding of ^125I-FGF-2 to plastic immobilised PTX3 has been tested in the presence of an excess of both native or heat denatured cold FGF-2 (100 nM), in the presence of similar Cytocrome C concentrations or in the presence of an excess of soluble PTX3 (300 nM).

FGF-2 [10] = target: T1, FGF-2; assay: Capacity of biotinylated PTX3 to bind plastic immobilised FGF-2; format: binding; conditions: ELISA, streptavidin HRP, 405 nm
Procedure: 100 μl of NaHCO3 pH 9.6 containing 500 ng of FGF-2 or of the complement component C1q were incubated 18 h at 4° C. in 96 wells plastic plates. At the end of incubation wells were washed 3 times with PBS and subsequently incubated 2 h at room temperature with 200 μl of PBS containing 1 mg/ml of Bovine Serum Albumin (BSA). At the end of incubation wells were washed again 3 times with PBS and incubated with 30 ng/ml of ^125I-FGF-2 in presence of increasing amounts of biotinylated PTX3 in 100 μl of PBS (2 h at room temperature). Alternatively wells were adsorbed with increasing doses of FGF-2 or C1q and incubated with 100 ng/ml of biotinylated PTX3 in 100 μl of PBS. After this incubation wells were washed 3 times with PBS and incubated 1 h at room temperature with 100 μl of streptavidin HRP conjugate ( 1/2000). Reaction was developed by adding the chromogen microwell peroxidase substrate system ABTS (Kirkegaard & Perry Laboratories). Plates were read in an automatic ELISA reader at 405 nm.

Molecule: Cc1ccc(C(=O)Nc2ccc(S(=O)(=O)O)c3cc(S(=O)(=O)O)cc(S(=O)(=O)O)c23)cc1NC(=O)c1cccc(NC(=O)Nc2cccc(C(=O)Nc3cc(C(=O)Nc4ccc(S(=O)(=O)O)c5cc(S(=O)(=O)O)cc(S(=O)(=O)O)c45)ccc3C)c2)c1 [suramin, reference compound]
- inhibition of FGF-2 dependent proliferation of MAE3F2T cells (MAE3F2T cells): in a manner similar to that exerted by anti FGF-2 antibodies and suramin

Molecule: CRP: short pentraxin homologous to PTX3, used as comparison protein
- binding of 125I-FGF-2 to plastic immobilised protein (FGF-2 [1]): reacts poorly
- binding of 125I-FGF-2 to plastic immobilised protein (FGF-2 [1]; listed as C-reactive protein): does not bind FGF-2

Molecule: biotinylated PTX3: PTX3 labelled with biotin for the ELISA binding test
- binding of biotinylated PTX3 to plastic immobilised FGF-2 (FGF-2 [10]): FGF-2 immobilised on plastic wells is able to bind biotinylated PTX3

The next lines start with results.

- binding of 125I-FGF-2 to plastic immobilised protein (FGF-2 [1]): FGF-2 binds plastic immobilised PTX3
- Kd (FGF-2 [6]): 0.008 to 0.016 µM
- inhibition of the interaction between 125I-FGF-2 and plastic immobilised PTX3 [9]: inhibited the interaction
Molecule: PTX3: long pentraxin PTX3; preferred is human PTX3, sequence described in WO99/32516; produced as by Bottazzi et al. 1997
- inhibition of FGF-2 binding to low-affinity receptors on endothelial cells [2]: able to inhibit in a dose-dependent manner
- inhibition of FGF-2 dependent proliferation of MAE3F2T cells (MAE3F2T cells): inhibiting their FGF-2 dependent proliferation
- invasive capacity on fibrin gels (radially growing cell sprouts) (FGF2MAE3F2T cells [3]): significantly lower
- binding of PTX3 to FGF-2 in solution (change of FGF-2 chromatographic behaviour) (FGF-2 [4]): FGF-2 was eluted from the column with a retention volume equal to PTX3 alone
- inhibitory activity when other mitogens are used to induce cellular proliferation (GM 7373 cells): not detectable
- effect of PTX3 over-expression on FGF2MAE3F2T cells proliferation (FGF2MAE3F2T cells [5]): inhibits FGF2MAE3F2T cells proliferation
- inhibition of FGF-2 binding to high-affinity receptors on endothelial cells [7]: able to inhibit in a dose-dependent manner
- effect on neovascularization induced in vivo by FGF-2 (angiogenic response score 0-4+) [8]: able to block the neovascularization

- inhibition of the interaction between 125I-FGF-2 and plastic immobilised PTX3 [9]: inhibited the interaction
Molecule: cold FGF-2: human recombinant growth factor FGF-2, unlabelled, used as competitor

- inhibition of the interaction between 125I-FGF-2 and plastic immobilised PTX3 [9]: not able to bind PTX3
Molecule: heat-inactivated FGF-2: heat denatured unlabelled FGF-2 used as competitor

Source: US7858577B2, “Use of the long pentraxin PTX3 for the treatment of diseases caused by an altered activation of the growth factor FGF-2” (Sigma-Tau Industrie Farmaceutiche Riunite S.p.A., priority 2000, dated 2010)
